Assay results published in article PMC7728236 (PLoS Pathogens, 2020).

Target: the molecule itself
Experiment: cryo-EM structure

B1: full-length hemagglutinin (HA) of influenza virus A/Hong Kong/1/1968 (H3N2), trypsin-cleaved into HA1/HA2 (natural protein)
chain 1: not shown
chain 2: not shown
notes: copies: 3 + 3
- stoichiometry N: 3
